The record followed here is the DeepSol protein solubility set.

This series is described as follows: soluble on expression in E. coli; label from the status in PepcDB or PDB records.
Regarding “MSLEIVQEGIAKIIVPEIPKTVSSDMPVFYNPRMRVNRDLAVLGLEYLCKKLGRPVKVADPLSASGIRAIRFLLETSCVEKAYANDISSKAIEIMKENFKLNNIPEDRYEIHGMEANFFLRKEWGFGFDYVDLDPFGTPVPFIESVALSMKRGGILSLTATDTAPLSGTYPKTCMRRYMARPLRNEFKHEVGIRILIKKVIELAAQYDIAMIPIFAYSHLHYFKLFFVKERGVEKVDKLIEQFGYIQYCFNCMNREVVTDLYKFKEKCPHCGSKFHIGGPLWIGKLWDEEFTNFLYEEAQKREEIEKETKRILKLIKEESQLQTVGFYVLSKLAEKVKLPAQPPIRIAVKFFNGVRTHFVGDGFRTNLSFEEVMKKMEELKEKQKEFLEKEGHHHHHH”, the “soluble on expression in E. coli” value was “soluble”.
For “GSHMASMTGGQQMGRGSGSHMASMTGGQQMGRGSRVGEQSQAGDPGLVSAYGPGLEGGTTGVSSEFIVNTLNAGSGALSVTIDGPSKVQLDCRECPEGHVVTYTPMAPGNYLIAIKYGGPQHIVGSPFKAKVTGPRLS”, the “soluble on expression in E. coli” value is “soluble”.
Then “MFTKRHRITLLFNANKAYDRQVVEGVGEYLQASQSEWDIFIEEDFRARIDKIKDWLGDGVIADFDDKQIEQALADVDVPIVGVGGSYHLAESYPPVHYIATDNYALVESAFLHLKEKGVNRFAFYGLPESSGKRWATEREYAFRQLVAEEKYRGVVYQGLETAPENWQHAQNRLADWLQTLPPQTGIIAVTDARARHILQVCEHLHIPVPEKLCVIGIDNEELTRYLSRVALSSVAQGARQMGYQAAKLLHRLLDKEEMPLQRILVPPVRVIERRSTDYRSLTDPAVIQAMHYIRNHACKGIKVDQVLDAVGISRSNLEKRFKEEVGETIHAMIHAEKLEKARSLLISTTLSINEISQMCGYPSLQYFYSVFKKAYDTTPKEYRDVNSEVML”, with “soluble”; and “METNIVEVENFVQQSEERRGSAFTQEVKRYLERYPNTQYVDVLLTDLNGCFRGKRIPVSSLKKLEKGCYFPASVFAMDILGNVVEEAGLGQEMGEPDRTCVPVLGSLTPSAADPEFIGQMLLTMVDEDGAPFDVEPRNVLNRLWQQLRQRGLFPVVAVELEFYLLDRQRDAEGYLQPPCAPGTDDRNTQSQVYSVDNLNHFADVLNDIDELAQLQLIPADGAVAEASPGQFEINLYHTDNVLEACDDALALKRLVRLMAEKHKMHATFMAKPYEEHAGSGMHIHISMQNNRGENVLSDAEGEDSPLLKKMLAGMIDLMPSSMALLAPNVNSYRRFQPGMYVPTQASWGHNNRTVALRIPCGDRHNHRVEYRVAGADANPYLVMAAIFAGILHGLDNELPLQEEVEGNGLEQEGLPFPIRQSDALGEFIENDHLRRYLGERFCHVYHACKNDELLQFERLITETEIEWMLKNA”, with “soluble”.
Under “MSEKFEHYYTVEPTSKLKVREARLVLKNGHEYIFKTPSGVYSYGKIDKATQVLLENLKVHGKKVLDLGCGYGVIGIVLKKEYPDLEVYMSDINKRAVEFAKINAKDHNVEVDIRWGNLYEPWEDMKFDMIVCNPPIVAGKKVWMEIVKSAPEFLEEGGSLQIVAYHNKGGRRIRDFMKEVFGNVEELCKTGGIRVYRSVKGLKEDEDNAE” stands “not soluble”; under “MAYKVYLKDLADVDDGSRCESSSILTQNQPTTIASSGFVMSNPNVKSPSLPSSATNWNSEYSVTEPTMSPADQILKDSVARKKRSMVDLTELNQLYGKGYKPPAPSARTPPTIYENLAINAPSSPSATDASSVPLTFIEKHHEFKKLVPSGTDGRFELFLKVADCFD”, “not soluble”; under “MGSDKIHHHHHHMTHDTSPIHRTIELPDELLVGAIDTHIHSGPWLKSCPGRLDPFQIAEQAKQAGMRAVVFYDHTFGNSAGTSWMVRRSVPGIDVYGGIILTTNFGGMNPRAVKTALHYGDGAKFVHFGTHCTYHMASREGSYVDGKPVPFKDLYPKFAEQELARAIRIPLDGPVPGELEEILGLVAGHPDVYLNTGHISPGEVMRLAELAERFGIRKMIVAHPARAWLSTAQQKDLSARGFFLEGSVSDWLFHRGLPRTNYYVEREYADEIAGIANEPQFQGVVQWASQLREVGLANVVLGTDYGIGSCPAPREGMRLLISTLLDLQFSLAEIELLTRRNPARLLGLE”, “not soluble”.
Regarding “ALGVPFFSCQRGYKGVWRGDGIMQTTCPCGAQITGHVKNGSMRIVGPRTCSNTWHGTFPINAYTTGPCTPSPAPNYSRALWRVAAEEYVEVTRVGDFHYVTGMTTDNVKCPCQVPAPEFFTEVDGVRLHRYAPACKPLLREEVTFLVGLNQYLVGSQLPCEPEPDVAVLTSMDDDDK”, the “soluble on expression in E. coli” value is “soluble”.
Under “MNNMSLSDIFERFDTSKDGKISWEEFRDAIHALSPSIPSEKLVEMFIQLDTNGDGQVDAAKFASCMDQTAQSSGGDVEKELKDAFKLYDINCDGKISANELHVVMTRLGEKCTVESCVGMVQAIDVDGDGYIRFVGV” stands “soluble”.
Then “MSLGAMPTVRDLRLIPFRIPLKAPLRWGKSSELAALEHALLEVELSDGSIGRAEVAIRPTIYGETLGSVRAGLEYLRPRLLGLEADDQEGIRAVLEAFPFNFGLKGALDTALWEAWARSEGEELYQVLKPAKHRVRVAYILGLGEEDEVLEDARMAFGAGVRVFKVKVGRDLEADTRRILRLKEAFPEAELYADANESLPPKEAERYLLAWKELGLRYVEEPLPVEEVEARRALREKGILSLIADDAAMTPKDLKRELALNTFDVLNLKPARTGVTWTLEMLALARERGKKAMVGSQAQSAFGAYQSALLAFQQGVTEPCELAFHLKAEGGFFPFPPFREGWLYWEDLVEARFDEEAFARYALKEAEGHHHHHH”, with “soluble”; and “MGSDKIHHHHHHMKFIFDIDGTICFKGNAVTKGIIHALDVCQSKGHEVIFASARPIRDLLPVLPNHMHHYSMIGGNGAFIAKGKDTIEVITFDPGTVSAIHSIIKKHSLSYLIDSHWNYSYTGSENHPIYKNIDPNQLANNVHIDEIKEVVKVVLFPDHVQKEYIMNMLTELPIRIYEHDNEGIVDISPENIDKWVGLQRLGIKEREFVVFGNDSNDLSMFLHAKESICVGSHEVLLGYASTCLKIDEQSIVNKIIELSELYA”, with “not soluble”; and “SANLPTVLVTGASGRTGQIVYKKLKEGSDKFVAKGLVRSAQGKEKIGGEADVFIGDITDADSINPAFQGIDALVILTSAVPKMKPGFDPTKGGRPEFIFEDGQYPEQVDWIGQKNQIDAAKVAGVKHIVVVGSMGGTNPDHPLNKLGNGNILVWKRKAEQYLADSGTPYTIIRAGGLLDKEGGVRELLVGKDDELLQTDTKTVPRADVAEVCIQALLFEEAKNKAFDLGSKPEGTSTPTKDFKALFSQVTSRF”, with “soluble”.
Under “MRLALAVLILLLSIAPAMALCSYEVVEERYADPFTVDISSMPSLKDLPVDDPSDGIDWVKVPLPKPCVNGMGKDTFIMVRKGSSNNLLIFFEGGGACADYETCKPMLCTDLKSCKPLLGIGSVVALESNFCFLKLYYRGGIFDVKKAENPFRDWTIVFVPYNTGDLHMGNRVVRYFDDGKEKTIYHVGYVNAIVAMRWIKENGNFDRIVVAGSSAGGYATLLHGYTAWSIFGKPVTVINDAGPGINPDSDSKFQVNEIMERWGSKQNFPPEALQYFEGKDPAYAIEYFLDKCSDCVYGFFEDQKDLVIGSVFSAYWPWQFKTRLLKVTDELRDYSDRYCRFLPYDYQHTVLTGGLLYPLQKDRFYCEKVGGYRVYEWVKELLRGNCVDLVELEHHHHHH” stands “not soluble”; under “MKGVNMFERFTDRARRVIVLAQEEARGLNHNYIGTEHILLGLIHEGEGVAAKALESMGISLEAVRQEVEEIIGHGSEPPAGHIPFTPRAKKVLELSLREGLQMGHKYIGTEFLLLGLIREGDGVAAQVLVKLGADLPRVRQQVIQLLS”, “not soluble”.
In the case of “MLHLPTIETSSAGRRRRKANSEVDSGAEEPTATSSSDDKSDYRLDLKKRLTTFLTSNSQMASSDSGVSGVESTVEHDLSELKASDSPMSHDGADSPRPELDRTDIVVCGECHTSFSLSCFSNFIEHKVSNCGGKLTPSDDCEVTPRNFDRSRRRTFNPAALIRCGRSTSANALLPNYNMDVTTDTNDLGSSSKSLTCCNCKERFGDVWTLLKHSYDIHGLRVCQEAIPESDVSVTSTSSPTSNESMHMSSRYNHNDTSSKIMHQTIKSESTMMNSFCSERLKEIVTRAGEQDQKPLMALRRLMPSEETEEEQVSAFTSTSLLNSRASQPQLPTVSSSAGFQTSGSMPNVWMQPSMLAAMQEYYASIQQMPYPMTNSTAVALLNISNNLQQQQQQQQQLQQQQQNLIAAQPQVATPQPPAPTPLFQSLNRLSTADESSYTPRPASVAIRRRASPEEELTPPRKSMKIEEEDQLIVVDDGELAEPAARKPNNIKKERCNFCNKVFTNRSNLIVHLRSHTGEKPYKCQLCPYACAQSSKLTRHMRTHGQQGKETYHCYICRMPFSVHSTLEKHMRKCVVSTQGRREGGSPPERSIRPTPSALAEATSLLALSAPSISVPPQPQASTVGQNQSQSHQIVLNWLHALNASNSTPTATSKEDMIEADEDMEETEASDLQSHQPLTSESNQIATVAN”, the “soluble on expression in E. coli” value was “not soluble”.
Under “MKSDDLERLEESQEMQQLIHAAKEQYEQEKSVHPPVAYAAFAQNLRERQKDGKMKAKQEPPERETFEVKGGKRSGISPWWLVAACLLGGIIGYGISTTSDRQEAGLERLAVADTVIVVRERVDTVYREVEVPSQPLVASRSTVKSKSTGLTKEHVKQSRKAVQKAEPAFISIEFLQQQQNLPDPNSECYAANGMTVAEGNYPFHLLATVPCK” stands “not soluble”; under “IGDMAPKANMGWYNSFSYKGFNLGMMLTARLGGLVVSNTQGVLDYYGVSKASADARDAGGVWINNGYVDAKEYYQTIGGSNGGLGQYYTYSATNVRLSELSFSYAFPKKWFNNKVGITAGFVAKNLWMIYCKAPFDPELTASTSSNFYQGVDYFMTPSTRNLGFNVKFQF”, “not soluble”.
Then “MVKKEFQLTHIFKNVSKLKVGKFAWTPMKEHFNVSWQIAITRTHFRNEEKMEIQVGCQKLTKDDVPAGVEGEFTIKLTNSSGISTSKSSRLKLVKNGGLGFLKIVWKVMQDEYLIDDSIIIEATVKITKMTGISKKPLKCFDQSKEKFSDVILAVGDQKFFVLRKFLASHSTFFESRFLGNFDEADKSEVTLRDIDSADFQNLLEVLYGEPAIDDDTVDGILHLAHMYDIPLPIRKCEEFLIEVSEKSMKDQLVLAKQYQLEKLKVKKKT”, with “not soluble”; and “MAKRVPNMELFVFCEDLEFTQNLDLGYPFMDMTTRDKEEEAYWDMLLMQSCQHGIIANSTYSWWAAYLIENPEKIIIGPKHWLFGHENILCKEWVKIESHFEVKSQKYNALEHHHHHH”, with “soluble”; and “MGSDKIHHHHHHMKSIIHSTENNNFYLYDTQRILSMLIHPELKKIHEKSTDINIDAYYLKKYSYLVNHGFFGEAKPFEFKANISENSIKENITQTKVIVFEITDYCNLKCKYCSLGDLYNFSKKESKNINIKYALNFLRYIFNVKHKKTKLTISFFGGEPLVNFPAIQQIIEEAKLLNKNKKLDLMFNMTTNATLIHKYIDFIVENNIELLISFDGNEKAHSYRTYASNNKNSFHDVLMNTDMIKLKHPSYFDKYVNFNAVLNNRNSIKGIYEFIYNRYGKIPRISQLSSDHINLNKKNIFDDIFHSRKISEKEFQKEGSDVLPIVSNRLIPFNESKKFLKHYSLNLYLSNTLYLLYDLIDSFPTGTCLPFQTRIFLNTHNNLLPCEKVSYKNFLGKVNDHVFINIPEIVQRYNSYYVHCKKVCQYCYGGRACSTCLLSLDNLDQLGVEEFVCPDFQNQKTFEDKLNRIFSYLEKCPSEFFQIINHLITE”, with “not soluble”.
Then “RIWRIIPDTSVIIDGRLSSRIKSGEFGSAEVIIPEAVVSELEAQANKGREIGFKGLEELSELRKLADRGDIQLKFSGVQPSLEEIKLSREGRVDALIRQTALDEGGLFVSEDRVQSLIARAKGLDVEYMHPKV”, with “not soluble”.
